Substrate in this data set: Nc1nc2c(ncn2[C@@H]2O[C@H](COP(=O)(O)OP(=O)(O)OP(=O)(O)O)[C@@H](O)[C@H]2O)c(=O)[nH]1
The experiment in a line: coupled enzymatic assay of AK3 activity. Type of data set: biochemical, human. Conditions: other: GTP as varied substrate, 300 μM AMP, 2 mM MgCl2.

This is an account of results in PMC8325564.

B1: human AK3 (Homo sapiens) (protein)
chain: MGASARLLRAVIMGAPGSGKGTVSSRITTHFELKHLSSGDLLRDNMLRGTEIGVLAKAFIDQGKLIPDDVMTRLALHELKNLTQYSWLLDGFPRTLPQAEALDRAYQIDTVINLNVPFEVIKQRLTARWIHPASGRVYNIEFNPPKTVGIDDLTGEPLIQREDDKPETVIKRLKAYEDQTKPVLEYYQKKGVLETFSGTETNKIWPYVYAFLQTKVPQRSQKASVTP
B1: the Km (usually the concentration of substrate that gives half-maximal velocity) was determined as 10 ± 1.5 µM and the specificity constant (kcat/Km) (usually the second-order rate constant that governs catalysis at low substrate concentration) amounted to 5.7e+06 ± 900000 M⁻¹ s⁻¹.
